# According to patent US20260158160A1 (MACFARLANE BURNET INSTITUTE FOR MEDICAL RESEARCH AND PUBLIC …, published 2026):
# Where “and” joins values, the source holds several entries; their conditions need not be identical. Equal entries are not always repeated. Where two headings read alike, the source gives them in different places.
# Columns and labels:
# [1] = target: T1, SARS-CoV-2 RBD-Ig (SARS-CoV-2; mouse, UniProt P0DTC2 319-541)
# [2] = target: SARS-CoV-2 spike protein on virus (CoV/Australia/VIC01/2020) (SARS-CoV-2, UniProt P0DTC2 14-1273); experiment: cell-based or functional assay
# [3] = target: SARS-CoV-2 spike protein expressed on Ramos-S cells (SARS-CoV-2, UniProt P0DTC2 14-1273)
# [4] = target: T1, SARS-CoV-2 RBD-Ig; experiment: ELISA: ACE2-Fc titrated on immobilised RBD-Ig (A450), curve fit
binder,measurement,setting,value
"EflACE2-Fc-H429Y (Fc fusion, also called EflACE2-Fc-H429Yoli; Yoli) ETGSTIEEQAKYFLDKFNHEAEDLFYQSSLASWNYNTNITEENVQNMNNAGDKWSAFLKEQSTTAQMYPLQEIQNLTVKLQLQALQQNGSSVLSEDKSKRLNTILNTMSTIYSTGKVCNPDNPQECLLLEPGLNEIMANSLDYNERLWAWESWRSEVGKQLRPLYEEYVVLKNEMARANHYEDYGDYWRGDYEVNGVDGYDYSRGQLIEDVEHTFEEIKPLYEHLHAYVRAKLMNAYPSYISPIGCLPAHLLGDMWGRFWTNLYSLTVPFGQKPNIDVTDAMVDQAWDAQRIFKEAEKFFVSVGLPNMTQGFWEYSMLTDPGNVQKAVCHPTAWDLGKGDFRILMCTKVTMDDFLTAHHEMGHIQYDMAYAAQPFLLRNGANEGFHEAVGEIMSLSAATPKHLKSIGLLSPDFQEDNETEINFLLKQALTIVGTLPFTYMLEKWRWMVFKGEIPKDQWMKKWWEMKREIVGVVEPVPHDETYCDPASLFHVSNDYSFIRYYTRTLYQFQFQEALCQAAKHEGPLHKCDISNSTEAGQKLFNMLRLGKSEPWTLALENVVGAKNMNVRPLLNYFEPLFTWLKDQNKNSFVGWSTDWSPYADQSIKVRISLKSALGDRAYEWNDNEMYLFRSSVAYAMRQYFLKVKNQMILFGEEDVRVANLKPRISFNFFVTAPKNVSDIIPRTEVEKAIRMSRSRINDAFRLNDNSLEFLGIQPTLGPPNQPPVSGGGGSTHTCPPCPAPELLGGPSVFLFPPKPKDTLMISRTPEVTCVVVDVSHEDPEVKFNWYVDGVEVHNAKTKPREEQYNSTYRVVSVLTVLHQDWLNGKEYKCKVSNKALPAPIEKTISKAKGQPREPQVYTLPPSREEMTKNQVSLTCLVKGFYPSDIAVEWESNGQPENNYKTTPPVLDSDGSFFLYSKLTVDKSRWQQGNVFSCSVMYEALHNHYTQKSLSLSPGK",EC50,[1],0.38 nM and 0.6 nM
same,fold of neutralisation activity over unfused trACE2,[2],> 600 fold
"EflACE2-Fc-H429F (Fc fusion, also called EflACE2-Fc F) ETGSTIEEQAKYFLDKFNHEAEDLFYQSSLASWNYNTNITEENVQNMNNAGDKWSAFLKEQSTTAQMYPLQEIQNLTVKLQLQALQQNGSSVLSEDKSKRLNTILNTMSTIYSTGKVCNPDNPQECLLLEPGLNEIMANSLDYNERLWAWESWRSEVGKQLRPLYEEYVVLKNEMARANHYEDYGDYWRGDYEVNGVDGYDYSRGQLIEDVEHTFEEIKPLYEHLHAYVRAKLMNAYPSYISPIGCLPAHLLGDMWGRFWTNLYSLTVPFGQKPNIDVTDAMVDQAWDAQRIFKEAEKFFVSVGLPNMTQGFWEYSMLTDPGNVQKAVCHPTAWDLGKGDFRILMCTKVTMDDFLTAHHEMGHIQYDMAYAAQPFLLRNGANEGFHEAVGEIMSLSAATPKHLKSIGLLSPDFQEDNETEINFLLKQALTIVGTLPFTYMLEKWRWMVFKGEIPKDQWMKKWWEMKREIVGVVEPVPHDETYCDPASLFHVSNDYSFIRYYTRTLYQFQFQEALCQAAKHEGPLHKCDISNSTEAGQKLFNMLRLGKSEPWTLALENVVGAKNMNVRPLLNYFEPLFTWLKDQNKNSFVGWSTDWSPYADQSIKVRISLKSALGDRAYEWNDNEMYLFRSSVAYAMRQYFLKVKNQMILFGEEDVRVANLKPRISFNFFVTAPKNVSDIIPRTEVEKAIRMSRSRINDAFRLNDNSLEFLGIQPTLGPPNQPPVSGGGGSTHTCPPCPAPELLGGPSVFLFPPKPKDTLMISRTPEVTCVVVDVSHEDPEVKFNWYVDGVEVHNAKTKPREEQYNSTYRVVSVLTVLHQDWLNGKEYKCKVSNKALPAPIEKTISKAKGQPREPQVYTLPPSREEMTKNQVSLTCLVKGFYPSDIAVEWESNGQPENNYKTTPPVLDSDGSFFLYSKLTVDKSRWQQGNVFSCSVMFEALHNHYTQKSLSLSPGK",EC50,[3],2.1 nM
same,EC50,[4],0.21 nM
